Numbering of substitutions follows the chain as printed.
T1: IIIb
T1 chain: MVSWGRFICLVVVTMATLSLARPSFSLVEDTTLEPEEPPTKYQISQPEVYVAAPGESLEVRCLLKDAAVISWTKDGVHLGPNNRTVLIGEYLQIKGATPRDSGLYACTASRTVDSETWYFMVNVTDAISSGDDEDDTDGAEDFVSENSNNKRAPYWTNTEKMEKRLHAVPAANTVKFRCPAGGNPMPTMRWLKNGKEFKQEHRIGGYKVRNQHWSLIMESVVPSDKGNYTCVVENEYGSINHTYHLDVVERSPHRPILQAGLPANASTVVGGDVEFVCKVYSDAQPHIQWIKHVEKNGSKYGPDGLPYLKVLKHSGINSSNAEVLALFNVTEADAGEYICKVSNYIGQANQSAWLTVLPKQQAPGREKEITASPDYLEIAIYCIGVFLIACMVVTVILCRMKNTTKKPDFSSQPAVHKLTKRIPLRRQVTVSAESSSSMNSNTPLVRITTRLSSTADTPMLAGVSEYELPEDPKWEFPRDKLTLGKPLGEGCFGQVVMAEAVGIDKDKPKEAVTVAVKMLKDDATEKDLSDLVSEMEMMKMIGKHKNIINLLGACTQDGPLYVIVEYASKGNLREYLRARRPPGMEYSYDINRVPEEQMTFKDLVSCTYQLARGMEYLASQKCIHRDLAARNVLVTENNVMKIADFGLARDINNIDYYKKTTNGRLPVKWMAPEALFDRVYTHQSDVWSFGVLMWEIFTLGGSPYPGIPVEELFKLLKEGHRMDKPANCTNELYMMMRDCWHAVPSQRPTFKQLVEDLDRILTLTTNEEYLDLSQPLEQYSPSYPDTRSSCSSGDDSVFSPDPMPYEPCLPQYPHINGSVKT

B1: humanized anti-FGFR2 antibody hFR2-14_H7/L1 (antibody, V domains shown)
VH: QVQLVQSGAEVKKPGASVKVSCKASGFTFSTSYMSWVRQAPGPSTEWMGWIYAGDGGTKYNQKFKGRVTLTVDKSTSTAYMELSSLRSEDTAVYYCATDEYGDWFTYWGQGTLVTVSS
VL: DIQMTQSPSSLSASVGDRVTITCRASEDIYSNLAWYQQKPGKSPQLLIYDANILADGVPSRFSGSGSGTDYTLTISSLQPEDFATYYCQQYNNYPPFTFGQGTKVEIKR
B2: humanized anti-FGFR2 antibody hFR2-14_H18/L1 (antibody, V domains shown)
VH: B1 VH with E100Y
VL: B1 VL
B3: humanized anti-FGFR2 antibody hFR2-14_H5/L1 (antibody, V domains shown)
VH: B1 VH with D99E, E100G
VL: B1 VL
B4: humanized anti-FGFR2 antibody hFR2-14_H6/L1 (antibody, V domains shown)
VH: B1 VH with E100A
VL: B1 VL
B5: humanized anti-FGFR2 antibody hFR2-14_H17/L1 (antibody, V domains shown)
VH: B1 VH with E100W
VL: B1 VL
B6: humanized anti-FGFR2 antibody hFR2-14_H14/L1 (antibody, V domains shown)
VH: B1 VH with E100Q
VL: B1 VL
B7: humanized anti-FGFR2 antibody hFR2-14_H11/L1 (antibody, V domains shown)
VH: B1 VH with E100K
VL: B1 VL
B8: humanized anti-FGFR2 antibody hFR2-14_H10/L1 (antibody, V domains shown)
VH: B1 VH with E100I
VL: B1 VL
B9: humanized anti-FGFR2 antibody hFR2-14_H9/L1 (antibody, V domains shown)
VH: B1 VH with E100H
VL: B1 VL
B10: humanized anti-FGFR2 antibody hFR2-14_H13/L1 (antibody, V domains shown)
VH: B1 VH with E100M
VL: B1 VL
B11: humanized anti-FGFR2 antibody hFR2-14_H16/L1 (antibody, V domains shown)
VH: B1 VH with E100V
VL: B1 VL
B12: humanized anti-FGFR2 antibody hFR2-14_H15/L1 (antibody, V domains shown)
VH: B1 VH with E100R
VL: B1 VL
B13: humanized anti-FGFR2 antibody hFR2-14_H1/L1 (antibody, V domains shown)
VH: B1 VH with P43Q, S44G, T45L, E100G
VL: B1 VL
B14: humanized anti-FGFR2 antibody hFR2-14_H2/L1 (antibody, V domains shown)
VH: B1 VH with P43Q, S44G, T45L, V72A, E100G
VL: B1 VL
B15: humanized anti-FGFR2 antibody hFR2-14_H4/L1 (antibody, V domains shown)
VH: B1 VH with T45I, E100G, T106A
VL: B1 VL
B16: human chimeric anti-FGFR2 antibody cFR2-14 (antibody, V domains shown)
VH: QVKLLQSGAELVKPGASVKLSCKTSGFTFSTSYMSWLKQVPGPSTEWIGWIYAGDGGTKYNQKFKGKATLTVDKFSSTAYMDLSSLTSEDAAVYFCATDGYGDWFTYWGQGTLVTVSS
VL: DIQMTQSPASLSASLGETVTIECRASEDIYSNLAWYQQKPGNSPQLLIYDANILADGVPSRFSGSGSGTQYSLKINSLQSEDVASYFCQQYNNYPPFTFGAGTKLELKR

The binders below were run against human FGFR2 IIIc variant protein (isoform 1: NP_000132), expressed on transfected cells (UniProt P21802 22-821) (assay: Biacore).
Sequence of human FGFR2 IIIc variant protein (isoform 1: NP_000132), expressed on transfected cells (P21802 22-821, change not shown): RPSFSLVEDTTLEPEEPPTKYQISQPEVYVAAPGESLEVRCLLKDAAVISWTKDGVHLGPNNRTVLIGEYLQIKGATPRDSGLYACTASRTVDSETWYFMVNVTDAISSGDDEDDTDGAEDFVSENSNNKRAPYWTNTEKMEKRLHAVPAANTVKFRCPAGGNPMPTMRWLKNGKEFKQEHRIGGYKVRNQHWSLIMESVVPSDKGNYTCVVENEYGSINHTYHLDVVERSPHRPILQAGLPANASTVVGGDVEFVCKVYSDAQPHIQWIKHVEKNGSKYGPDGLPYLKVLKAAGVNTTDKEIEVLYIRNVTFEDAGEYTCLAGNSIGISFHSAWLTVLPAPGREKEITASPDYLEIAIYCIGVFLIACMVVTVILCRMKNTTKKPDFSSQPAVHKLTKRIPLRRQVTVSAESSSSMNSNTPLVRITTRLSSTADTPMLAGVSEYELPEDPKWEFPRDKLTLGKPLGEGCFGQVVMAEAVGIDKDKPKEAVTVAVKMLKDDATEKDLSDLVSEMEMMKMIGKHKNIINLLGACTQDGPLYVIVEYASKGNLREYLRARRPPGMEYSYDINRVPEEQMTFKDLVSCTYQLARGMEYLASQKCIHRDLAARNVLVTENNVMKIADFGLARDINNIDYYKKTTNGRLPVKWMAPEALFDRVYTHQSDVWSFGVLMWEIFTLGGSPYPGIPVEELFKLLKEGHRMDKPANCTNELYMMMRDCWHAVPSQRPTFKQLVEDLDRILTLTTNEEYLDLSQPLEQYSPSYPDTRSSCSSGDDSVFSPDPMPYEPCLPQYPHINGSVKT

Which Kd does the source give for B1 here?
The Kd was 1.2 nM.

B2 was tested. Which Kd did it give?
The Kd was 1.2 nM.

B3 was tested. Which Kd did it give?
The Kd was 0.95 nM.

Which Kd does the source give for B4 here?
Its Kd is 1.5 nM.

How did the Kd turn out when B5 was run?
The Kd was 1.5 nM.

How did the Kd turn out when B6 was run?
The Kd was 2.3 nM.

B7 was tested. Which Kd did it give?
Its Kd is 2.1 nM.

B8 was tested. Which Kd did it give?
Its Kd is 0.69 nM.

How did the Kd turn out when B9 was run?
Its Kd is 0.51 nM.

With B10 as the binder, how does the Kd read?
Its Kd is 0.67 nM.

For B11, which Kd is on record?
The Kd was 0.91 nM.

Which Kd does the source give for B12 here?
The Kd was 3.4 nM.

Molecular target: T1, IIIb
Assay: Biacore; rhFGFR2 alpha (IIIb) Fc chimera

Which Kd does the source give for B13 here?
The Kd was 12 nM.

B14 was tested. Which Kd did it give?
Its Kd is 8.7 nM.

B15 was tested. Which Kd did it give?
The Kd was 5.4 nM.

How did the Kd turn out when B16 was run?
Its Kd is 63 nM.

Each binder was assayed against IIIc (assay: Biacore; rhFGFR2 alpha (IIIc) Fc chimera).

With B13 as the binder, how does the Kd read?
The Kd was 3 nM.

How did the Kd turn out when B14 was run?
The Kd was 6.4 nM.

How did the Kd turn out when B15 was run?
The Kd was 2.8 nM.

Reference: US20160317656A1 (published 2016)
